The results in this text go back to patent US6864224 (BROWN UNIVERSITY RESEARCH FOUNDATION, dated 2005).

The assay deals with endogenous Raf-1 of Rat-1 cells (rat (Rat-1 cells), UniProt P11345 1-648). Put plainly: co-immunoprecipitation of endogenous proteins with RKIP antiserum.

Source text: For co-precipitation experiments of endogenous proteins, 2 ×10^7 Rat-1 cells were lysed by sonication in PBS, and the immunoprecipitates were washed 4 times with PBS.

B1: endogenous RKIP of Rat-1 cells (other, rat (Rat-1 cells), UniProt P31044 2-187, looked up)
chain: AADISQWAGPLSLQEVDEPPQHALRVDYGGVTVDELGKVLTPTQVMNRPSSISWDGLDPGKLYTLVLTDPDAPSRKDPKFREWHHFLVVNMKGNDISSGTVLSEYVGSGPPKDTGLHRYVWLVYEQEQPLNCDEPILSNKSGDNRGKFKVESFRKKYHLGAPVAGTCFQAEWDDSVPKLHDQLAGK
notes: Endogenous protein in cell lysates
In the case of B1, the binding result was “binds”.
